From patent US20240117334A1, “FACTOR B PROTEASES” (Vertex Pharmaceuticals Incorporated, priority 2021, published 2024)

B1: chymase C22S/F41R/L99H/G151A/F173S/Y215K/R217T/A226R (enzyme)
chain: IIGGTESKPHSRPYMAYLEIVTSNGPSKRCGGFLIRRNFVLTAAHCAGRSITVTLGAHNITEEEDTWQKLEVIKQFRHPKYNTSTHHHDIMLLKLKEKASLTLAVGTLPFPSQFNFVPPGRMCRVAGWGRTGVLKPASDTLQEVKLRLMDPQACSHSRDFDHNLQLCVGNPRKTKSAFKGDSGGPLLCAGVAQGIVSKGTSDAKPPRVFTRISHYRPWINQILQAN
B2: chymase C22S/F41G/L99H/G151T/F173Y/Y215K/A226R (enzyme)
chain: IIGGTESKPHSRPYMAYLEIVTSNGPSKGCGGFLIRRNFVLTAAHCAGRSITVTLGAHNITEEEDTWQKLEVIKQFRHPKYNTSTHHHDIMLLKLKEKASLTLAVGTLPFPSQFNFVPPGRMCRVAGWGRTGVLKPTSDTLQEVKLRLMDPQACSHYRDFDHNLQLCVGNPRKTKSAFKGDSGGPLLCAGVAQGIVSKGRSDAKPPRVFTRISHYRPWINQILQAN
B3: chymase C22S/F41R/L99H/F173L/Y215K/A226R (enzyme)
chain: IIGGTESKPHSRPYMAYLEIVTSNGPSKRCGGFLIRRNFVLTAAHCAGRSITVTLGAHNITEEEDTWQKLEVIKQFRHPKYNTSTHHHDIMLLKLKEKASLTLAVGTLPFPSQFNFVPPGRMCRVAGWGRTGVLKPGSDTLQEVKLRLMDPQACSHLRDFDHNLQLCVGNPRKTKSAFKGDSGGPLLCAGVAQGIVSKGRSDAKPPRVFTRISHYRPWINQILQAN
B4: chymase C22S/L99R/F173Y/S218L/A226R (enzyme)
chain: IIGGTESKPHSRPYMAYLEIVTSNGPSKFCGGFLIRRNFVLTAAHCAGRSITVTLGAHNITEEEDTWQKLEVIKQFRHPKYNTSTRHHDIMLLKLKEKASLTLAVGTLPFPSQFNFVPPGRMCRVAGWGRTGVLKPGSDTLQEVKLRLMDPQACSHYRDFDHNLQLCVGNPRKTKSAFKGDSGGPLLCAGVAQGIVSYGRLDAKPPRVFTRISHYRPWINQILQAN
B5: chymase C22S/F41R/L99H/F173Y/Y215K/A226R (enzyme)
chain: IIGGTESKPHSRPYMAYLEIVTSNGPSKRCGGFLIRRNFVLTAAHCAGRSITVTLGAHNITEEEDTWQKLEVIKQFRHPKYNTSTHHHDIMLLKLKEKASLTLAVGTLPFPSQFNFVPPGRMCRVAGWGRTGVLKPGSDTLQEVKLRLMDPQACSHYRDFDHNLQLCVGNPRKTKSAFKGDSGGPLLCAGVAQGIVSKGRSDAKPPRVFTRISHYRPWINQILQAN
B6: chymase C22S/F41L/L99H/G151T/F173L/Y215K/A226R (enzyme)
chain: IIGGTESKPHSRPYMAYLEIVTSNGPSKLCGGFLIRRNFVLTAAHCAGRSITVTLGAHNITEEEDTWQKLEVIKQFRHPKYNTSTHHHDIMLLKLKEKASLTLAVGTLPFPSQFNFVPPGRMCRVAGWGRTGVLKPTSDTLQEVKLRLMDPQACSHLRDFDHNLQLCVGNPRKTKSAFKGDSGGPLLCAGVAQGIVSKGRSDAKPPRVFTRISHYRPWINQILQAN
B7: chymase C22S/F41G/L99H/F173L/Y215K/A226R (enzyme)
chain: IIGGTESKPHSRPYMAYLEIVTSNGPSKGCGGFLIRRNFVLTAAHCAGRSITVTLGAHNITEEEDTWQKLEVIKQFRHPKYNTSTHHHDIMLLKLKEKASLTLAVGTLPFPSQFNFVPPGRMCRVAGWGRTGVLKPGSDTLQEVKLRLMDPQACSHLRDFDHNLQLCVGNPRKTKSAFKGDSGGPLLCAGVAQGIVSKGRSDAKPPRVFTRISHYRPWINQILQAN
B8: chymase C22S/L99R/F173Y/K192R/A226R (enzyme)
chain: IIGGTESKPHSRPYMAYLEIVTSNGPSKFCGGFLIRRNFVLTAAHCAGRSITVTLGAHNITEEEDTWQKLEVIKQFRHPKYNTSTRHHDIMLLKLKEKASLTLAVGTLPFPSQFNFVPPGRMCRVAGWGRTGVLKPGSDTLQEVKLRLMDPQACSHYRDFDHNLQLCVGNPRKTKSAFRGDSGGPLLCAGVAQGIVSYGRSDAKPPRVFTRISHYRPWINQILQAN
B9: chymase C22S/F41G/L99H/F173Y/Y215K/A226R (enzyme)
chain: IIGGTESKPHSRPYMAYLEIVTSNGPSKGCGGFLIRRNFVLTAAHCAGRSITVTLGAHNITEEEDTWQKLEVIKQFRHPKYNTSTHHHDIMLLKLKEKASLTLAVGTLPFPSQFNFVPPGRMCRVAGWGRTGVLKPGSDTLQEVKLRLMDPQACSHYRDFDHNLQLCVGNPRKTKSAFKGDSGGPLLCAGVAQGIVSKGRSDAKPPRVFTRISHYRPWINQILQAN
B10: chymase C22S/F41V/L99H/F173L/Y215K/A226R (enzyme)
chain: IIGGTESKPHSRPYMAYLEIVTSNGPSKVCGGFLIRRNFVLTAAHCAGRSITVTLGAHNITEEEDTWQKLEVIKQFRHPKYNTSTHHHDIMLLKLKEKASLTLAVGTLPFPSQFNFVPPGRMCRVAGWGRTGVLKPGSDTLQEVKLRLMDPQACSHLRDFDHNLQLCVGNPRKTKSAFKGDSGGPLLCAGVAQGIVSKGRSDAKPPRVFTRISHYRPWINQILQAN
B11: chymase C22S/F41R/L99H/G151T/F173L/Y215K/A226R (enzyme)
chain: IIGGTESKPHSRPYMAYLEIVTSNGPSKRCGGFLIRRNFVLTAAHCAGRSITVTLGAHNITEEEDTWQKLEVIKQFRHPKYNTSTHHHDIMLLKLKEKASLTLAVGTLPFPSQFNFVPPGRMCRVAGWGRTGVLKPTSDTLQEVKLRLMDPQACSHLRDFDHNLQLCVGNPRKTKSAFKGDSGGPLLCAGVAQGIVSKGRSDAKPPRVFTRISHYRPWINQILQAN
B12: chymase C22S/F41L/L99H/F173Y/Y215K/A226R (enzyme)
chain: IIGGTESKPHSRPYMAYLEIVTSNGPSKLCGGFLIRRNFVLTAAHCAGRSITVTLGAHNITEEEDTWQKLEVIKQFRHPKYNTSTHHHDIMLLKLKEKASLTLAVGTLPFPSQFNFVPPGRMCRVAGWGRTGVLKPGSDTLQEVKLRLMDPQACSHYRDFDHNLQLCVGNPRKTKSAFKGDSGGPLLCAGVAQGIVSKGRSDAKPPRVFTRISHYRPWINQILQAN
B13: chymase C22S/K93Q/G119D/F173S/K192R/A226R (enzyme)
chain: IIGGTESKPHSRPYMAYLEIVTSNGPSKFCGGFLIRRNFVLTAAHCAGRSITVTLGAHNITEEEDTWQKLEVIKQFRHPQYNTSTLHHDIMLLKLKEKASLTLAVDTLPFPSQFNFVPPGRMCRVAGWGRTGVLKPGSDTLQEVKLRLMDPQACSHSRDFDHNLQLCVGNPRKTKSAFRGDSGGPLLCAGVAQGIVSYGRSDAKPPRVFTRISHYRPWINQILQAN
B14: chymase C22S/F41V/L99H/F173Y/Y215K/A226R (enzyme)
chain: IIGGTESKPHSRPYMAYLEIVTSNGPSKVCGGFLIRRNFVLTAAHCAGRSITVTLGAHNITEEEDTWQKLEVIKQFRHPKYNTSTHHHDIMLLKLKEKASLTLAVGTLPFPSQFNFVPPGRMCRVAGWGRTGVLKPGSDTLQEVKLRLMDPQACSHYRDFDHNLQLCVGNPRKTKSAFKGDSGGPLLCAGVAQGIVSKGRSDAKPPRVFTRISHYRPWINQILQAN
B15: chymase C22S/F41G/L99H/G151T/F173L/Y215K/A226R (enzyme)
chain: IIGGTESKPHSRPYMAYLEIVTSNGPSKGCGGFLIRRNFVLTAAHCAGRSITVTLGAHNITEEEDTWQKLEVIKQFRHPKYNTSTHHHDIMLLKLKEKASLTLAVGTLPFPSQFNFVPPGRMCRVAGWGRTGVLKPTSDTLQEVKLRLMDPQACSHLRDFDHNLQLCVGNPRKTKSAFKGDSGGPLLCAGVAQGIVSKGRSDAKPPRVFTRISHYRPWINQILQAN
B16: chymase C22S/F41V/L99H/G151T/F173L/Y215K/A226R (enzyme)
chain: IIGGTESKPHSRPYMAYLEIVTSNGPSKVCGGFLIRRNFVLTAAHCAGRSITVTLGAHNITEEEDTWQKLEVIKQFRHPKYNTSTHHHDIMLLKLKEKASLTLAVGTLPFPSQFNFVPPGRMCRVAGWGRTGVLKPTSDTLQEVKLRLMDPQACSHLRDFDHNLQLCVGNPRKTKSAFKGDSGGPLLCAGVAQGIVSKGRSDAKPPRVFTRISHYRPWINQILQAN
B17: chymase C22S/F41V/L99H/G151T/F173Y/Y215K/A226R (enzyme)
chain: IIGGTESKPHSRPYMAYLEIVTSNGPSKVCGGFLIRRNFVLTAAHCAGRSITVTLGAHNITEEEDTWQKLEVIKQFRHPKYNTSTHHHDIMLLKLKEKASLTLAVGTLPFPSQFNFVPPGRMCRVAGWGRTGVLKPTSDTLQEVKLRLMDPQACSHYRDFDHNLQLCVGNPRKTKSAFKGDSGGPLLCAGVAQGIVSKGRSDAKPPRVFTRISHYRPWINQILQAN
B18: chymase C22S/F41R/L99H/G151T/F173Y/Y215K/A226R (enzyme)
chain: IIGGTESKPHSRPYMAYLEIVTSNGPSKRCGGFLIRRNFVLTAAHCAGRSITVTLGAHNITEEEDTWQKLEVIKQFRHPKYNTSTHHHDIMLLKLKEKASLTLAVGTLPFPSQFNFVPPGRMCRVAGWGRTGVLKPTSDTLQEVKLRLMDPQACSHYRDFDHNLQLCVGNPRKTKSAFKGDSGGPLLCAGVAQGIVSKGRSDAKPPRVFTRISHYRPWINQILQAN
B19: chymase C22S/L99R/K192R/S218L/A226R (enzyme)
chain: IIGGTESKPHSRPYMAYLEIVTSNGPSKFCGGFLIRRNFVLTAAHCAGRSITVTLGAHNITEEEDTWQKLEVIKQFRHPKYNTSTRHHDIMLLKLKEKASLTLAVGTLPFPSQFNFVPPGRMCRVAGWGRTGVLKPGSDTLQEVKLRLMDPQACSHFRDFDHNLQLCVGNPRKTKSAFRGDSGGPLLCAGVAQGIVSYGRLDAKPPRVFTRISHYRPWINQILQAN
B20: chymase C22S/F41L/L99H/G151T/F173Y/Y215K/A226R (enzyme)
chain: IIGGTESKPHSRPYMAYLEIVTSNGPSKLCGGFLIRRNFVLTAAHCAGRSITVTLGAHNITEEEDTWQKLEVIKQFRHPKYNTSTHHHDIMLLKLKEKASLTLAVGTLPFPSQFNFVPPGRMCRVAGWGRTGVLKPTSDTLQEVKLRLMDPQACSHYRDFDHNLQLCVGNPRKTKSAFKGDSGGPLLCAGVAQGIVSKGRSDAKPPRVFTRISHYRPWINQILQAN
B21: chymase C22S/K111E/F173L/Y215H/A226R (enzyme)
chain: IIGGTESKPHSRPYMAYLEIVTSNGPSKFCGGFLIRRNFVLTAAHCAGRSITVTLGAHNITEEEDTWQKLEVIKQFRHPKYNTSTLHHDIMLLKLKEEASLTLAVGTLPFPSQFNFVPPGRMCRVAGWGRTGVLKPGSDTLQEVKLRLMDPQACSHLRDFDHNLQLCVGNPRKTKSAFKGDSGGPLLCAGVAQGIVSHGRSDAKPPRVFTRISHYRPWINQILQAN
B22: chymase C22S/F41L/L99H/F173L/Y215K/A226R (enzyme)
chain: IIGGTESKPHSRPYMAYLEIVTSNGPSKLCGGFLIRRNFVLTAAHCAGRSITVTLGAHNITEEEDTWQKLEVIKQFRHPKYNTSTHHHDIMLLKLKEKASLTLAVGTLPFPSQFNFVPPGRMCRVAGWGRTGVLKPGSDTLQEVKLRLMDPQACSHLRDFDHNLQLCVGNPRKTKSAFKGDSGGPLLCAGVAQGIVSKGRSDAKPPRVFTRISHYRPWINQILQAN

Target: Human Factor B (human) (UniProt P00751)
Assay: cell-based or functional assay

Chain of Human Factor B (human) (P00751 26-764 limits assumed): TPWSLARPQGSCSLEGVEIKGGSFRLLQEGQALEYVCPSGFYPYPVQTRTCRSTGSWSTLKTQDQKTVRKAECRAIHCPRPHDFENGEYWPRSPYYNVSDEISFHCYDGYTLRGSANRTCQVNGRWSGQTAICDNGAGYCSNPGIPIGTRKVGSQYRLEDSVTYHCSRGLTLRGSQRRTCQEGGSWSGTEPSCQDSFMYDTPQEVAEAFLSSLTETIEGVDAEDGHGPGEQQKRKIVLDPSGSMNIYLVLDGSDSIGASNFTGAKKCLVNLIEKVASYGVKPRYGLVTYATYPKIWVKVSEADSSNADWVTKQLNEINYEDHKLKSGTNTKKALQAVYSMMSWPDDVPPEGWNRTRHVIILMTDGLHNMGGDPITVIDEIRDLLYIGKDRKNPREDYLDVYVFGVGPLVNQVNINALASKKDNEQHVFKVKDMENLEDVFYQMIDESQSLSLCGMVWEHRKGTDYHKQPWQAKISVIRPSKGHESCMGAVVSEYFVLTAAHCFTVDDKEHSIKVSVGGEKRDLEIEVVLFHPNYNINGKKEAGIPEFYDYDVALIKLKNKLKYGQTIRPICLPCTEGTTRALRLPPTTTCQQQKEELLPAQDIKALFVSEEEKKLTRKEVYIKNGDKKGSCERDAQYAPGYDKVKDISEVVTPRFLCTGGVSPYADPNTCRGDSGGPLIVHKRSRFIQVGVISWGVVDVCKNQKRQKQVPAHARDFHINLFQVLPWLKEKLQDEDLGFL

Binder	fB Cleavage EC50 [µM]	fB Cleavage, 64% A2M-depl plasma EC50 [µM]	fB Cleavage, 64% plasma EC50 [µM]
B1	2.25	2.88	3.4
B2	6.6		
B3	6.64		
B4	0.546		
B5	4.8		
B6	4.17		
B7	10.2		
B8	3.28		
B9	6.65		
B10	8.73		
B11	4.8		
B12	3.45		
B13	7.77		
B14	6.06		
B15	11.5		
B16	5.42		
B17	5.33		
B18	3.22		
B19	7.51		
B20	3.23		
B21	9.01		
B22	7.89		
